Consider 2 substances from publication PMC2173783.

In assay [1] the target is bt-SR (bt-SRβ + SRα) (canine). The experiment in a line: IAsys optical biosensor.
Assay [2] has as its target bt-SR (bt-SRβ + SRα) (canine). The assay can be described thus: IAsys optical biosensor. The source holds these as a separate data set.
Assay [3] addresses SRP receptor purified from canine pancreas (canine) (UniProt P06625). The experiment in a line: radioligand binding.
The target in another assay is Sec61 complex. The assay can be described thus: radioligand binding.
The target of assay [4] is bt-SR (bt-SRβ + SRα) (canine). The assay can be described thus: IAsys optical biosensor. This is another data set of the same source.

Read-outs that look alike come from different tables or passages of the source.

By koff is commonly meant a measure of how fast the partners let go of each other. One may read the kon as the rate constant with which the complex forms. Regarding “signal recognition particle (from UniProt P61010 1-504) (complex)”, the koff amounted to 0.0069 s⁻¹ in assay [1] and 0.0065 s⁻¹ in assay [2]. Besides, the kon in assay [1] turned out to be 48000 M⁻¹ s⁻¹.
In general, Kd refers to the concentration at which binding is half-saturated. What is called stoichiometry N is the number of molecules, sites or subunits per partner or assembly. 80S ribosomes (complex): the Kd in assay [1] worked out at 0.9 nM; in assay [3] it was 0.87 nM; with Sec61 complex it was 5.4 nM; in assay [4] it was 1.9 nM. In assay [3], this substance displayed a stoichiometry N of 1.
